Experimental data: article PMC7980222, “Neuronal non-CG methylation is an essential target for MeCP2 function”

Legend:
MeCP2[N-term] WT [1] = biological target: T1, MeCP2[N-term] WT (mouse, UniProt Q9Z2D6 1-205); assay: EMSA; 0-4.5 uM protein; not different from mCG (p = 0.613); BLI: 150 mM NaCl, 10 mM HEPES pH 8.0, 0.05% Tween20, poly(dI-dC) 1 ug/ml; MBD2 EMSA: 20 mM HEPES pH 7.9, 150 mM KCl, 8% Ficoll, 1 mM EDTA, 0.5 mM DTT, poly(dI-dC) 40 ng/ul, RT; N-term EMSA: 10 mM Tris-HCl pH 7.5, 150 mM KCl, 5% glycerol, 0.1 mM EDTA, 0.1 mg/ml BSA, 1 ug poly(dA-dT), on ice; pull-down at 4 C; details: protein: recombinant; tags: C-terminal 6xHis; label: 32P (T4 PNK); blunt
MM2[N-term] = MM2[N-term] (mouse, UniProt Q9Z2D6 1-93+Q9Z2E1:153-217+165-205, internal_change); assay: EMSA; 0-4.5 uM protein; BLI: 150 mM NaCl, 10 mM HEPES pH 8.0, 0.05% Tween20, poly(dI-dC) 1 ug/ml; MBD2 EMSA: 20 mM HEPES pH 7.9, 150 mM KCl, 8% Ficoll, 1 mM EDTA, 0.5 mM DTT, poly(dI-dC) 40 ng/ul, RT; N-term EMSA: 10 mM Tris-HCl pH 7.5, 150 mM KCl, 5% glycerol, 0.1 mM EDTA, 0.1 mg/ml BSA, 1 ug poly(dA-dT), on ice; pull-down at 4 C; details: protein: recombinant; tags: C-terminal 6xHis; label: 32P (T4 PNK); blunt
MeCP2[N-term] WT [2] = biological target: T1, MeCP2[N-term] WT; assay: as above; details: protein: recombinant; tags: C-terminal 6xHis; label: 32P (T4 PNK); blunt
MBD2[MBD] = MBD2[MBD] (human, UniProt Q9UBB5 139-224); assay: EMSA; 2 uM protein; poly(dI-dC); BLI: 150 mM NaCl, 10 mM HEPES pH 8.0, 0.05% Tween20, poly(dI-dC) 1 ug/ml; MBD2 EMSA: 20 mM HEPES pH 7.9, 150 mM KCl, 8% Ficoll, 1 mM EDTA, 0.5 mM DTT, poly(dI-dC) 40 ng/ul, RT; N-term EMSA: 10 mM Tris-HCl pH 7.5, 150 mM KCl, 5% glycerol, 0.1 mM EDTA, 0.1 mg/ml BSA, 1 ug poly(dA-dT), on ice; pull-down at 4 C; details: protein: recombinant; tags: N-terminal His6 removed by TEV; residual N-terminal SM; label: 5'-FAM on strand 1; 19 bp, 5' overhang 1 nt each end
MeCP2[MBD] [3] = biological target: T2, MeCP2[MBD] (mouse (fragment sequence identical in …, UniProt Q9Z2D6 77-167)); assay: BLI; poly(dI-dC) 1 ug/ml; main text prints 63.17; BLI: 150 mM NaCl, 10 mM HEPES pH 8.0, 0.05% Tween20, poly(dI-dC) 1 ug/ml; MBD2 EMSA: 20 mM HEPES pH 7.9, 150 mM KCl, 8% Ficoll, 1 mM EDTA, 0.5 mM DTT, poly(dI-dC) 40 ng/ul, RT; N-term EMSA: 10 mM Tris-HCl pH 7.5, 150 mM KCl, 5% glycerol, 0.1 mM EDTA, 0.1 mg/ml BSA, 1 ug poly(dA-dT), on ice; pull-down at 4 C; details: protein: recombinant; tags: pET28 (NdeI/EcoRI), His tag (Ni-NTA purified; tag removal not mentioned); label: 5'-biotin on strand 1; 19 bp, 5' overhang 1 nt each end
MeCP2[MBD] [4] = biological target: T2, MeCP2[MBD]; assay: BLI; poly(dI-dC) 1 ug/ml; BLI: 150 mM NaCl, 10 mM HEPES pH 8.0, 0.05% Tween20, poly(dI-dC) 1 ug/ml; MBD2 EMSA: 20 mM HEPES pH 7.9, 150 mM KCl, 8% Ficoll, 1 mM EDTA, 0.5 mM DTT, poly(dI-dC) 40 ng/ul, RT; N-term EMSA: 10 mM Tris-HCl pH 7.5, 150 mM KCl, 5% glycerol, 0.1 mM EDTA, 0.1 mg/ml BSA, 1 ug poly(dA-dT), on ice; pull-down at 4 C; details: protein: recombinant; tags: pET28 (NdeI/EcoRI), His tag (Ni-NTA purified; tag removal not mentioned); label: 5'-biotin on strand 1; 19 bp, 5' overhang 1 nt each end

MBD2[MBD], sequence (Q9UBB5 139-224): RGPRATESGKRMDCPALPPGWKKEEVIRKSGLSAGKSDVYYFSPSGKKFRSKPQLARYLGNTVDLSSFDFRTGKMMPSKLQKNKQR

B1: Bdnf mCAC probe (dsDNA)
DNA 1: AAGCATGCAATGCCCTGGAACACAATTCTTCTAATAAAAGATGTATCATTTTAAATGC
DNA 2: GCATTTAAAATGATACATCTTTTATTAGAAGAATTGTGTTCCAGGGCATTGCATGCTT
modifications: 5mC at central CAC: C21 of strand 1 (underlining lost in text)
binding result (MeCP2[N-term] WT [1]): binds
binding result (MM2[N-term]): no binding

B2: Bdnf mCG probe (dsDNA)
DNA 1: AAGCATGCAATGCCCTGGAACGGAATTCTTCTAATAAAAGATGTATCATTTTAAATGC
DNA 2: GCATTTAAAATGATACATCTTTTATTAGAAGAATTCCGTTCCAGGGCATTGCATGCTT
modifications: 5mC at central CG: C21 of strand 1 and probably C37 of strand 2 (underlining lost in text)
binding result (MeCP2[N-term] WT [2]): binds

B3: FAM mCG probe (dsDNA)
DNA 1: TCTGGAACGGAATTCTTCTA
DNA 2: ATAGAAGAATTCCGTTCCAG
modifications: 5mC at CG: C8 of strand 1 and probably C13 of strand 2 (underlining lost in text)
binding result (MBD2[MBD]): binds

B4: BLI mCAT probe (dsDNA)
DNA 1: TCTGGAACATAATTCTTCTA
DNA 2: ATAGAAGAATTATGTTCCAG
modifications: 5mC at CAT: C8 of strand 1 (underlining lost in text)
Kd (MeCP2[MBD] [3]): 63.7 nM

B5: BLI mCAC probe (dsDNA)
DNA 1: TCTGGAACACAATTCTTCTA
DNA 2: ATAGAAGAATTGTGTTCCAG
modifications: 5mC at CAC: C8 of strand 1 (underlining lost in text)
Kd (MeCP2[MBD] [4]): 13.9 nM

B6: BLI mCG probe (dsDNA)
DNA 1: TCTGGAACGGAATTCTTCTA
DNA 2: ATAGAAGAATTCCGTTCCAG
modifications: 5mC at CG: C8 of strand 1 and probably C13 of strand 2 (underlining lost in text)
Kd (MeCP2[MBD] [4]): 22.2 nM
